Assay results as given in patent US7056679 (ANTYRA, dated 2006).

T1: DGI-2 polypeptide (UniProt Q15004 1-111, limits assumed)
T1 construct: Soluble recombinant protein coated at 500 ng/well; vector tag of pIVEX2.3-MCS not described for this construct; also called KIAA0101
T1 sequence (looked up): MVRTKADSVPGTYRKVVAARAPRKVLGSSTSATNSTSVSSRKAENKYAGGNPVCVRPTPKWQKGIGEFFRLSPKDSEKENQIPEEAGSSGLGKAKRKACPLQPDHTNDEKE

B1: DGI-2-40F-4-F97 (peptide)
peptide: QVGGMTQVGATVLSVVTGRGSCDGEDAWYPPGVTVGLGLCAAAGAPVPYPDPLEPRP
B2: DGI-2-40F-3-D1044 (peptide)
peptide: DRVARLATPTAGTMAAGSLGYERTVGCDSQDWFRCVVEGLAAAGAPVPYPDPLEPRP

Each binder was assayed against T2, antibody raised against ETAG (assay: phage ELISA).
T2 construct: Coated at 500 ng/well; also called E-tag antibody
Experimental: (§1) For analysis of individual target binders, colonies were picked and phage prepared as described above using helper phage, M13KO7. Ninety-six-well microtiter plates were coated with 500 ng/well of specific target protein, 500 ng/well lactate dehydrogenase (LDH) irrelevant or non-specific target, 500 ng/well of positive control antibody raised against ETAG, and negative control of non-fat milk powder-PBS 2% at 4° C. overnight. Plates were then blocked with 350 microliters/well PBS containing 2% non-fat milk for 1 hr at room temperature. One hundred microliters per well of phage from isolated clones were added and plates were incubated at room temperature for 2 hr after centrifuging samples for 20 minutes at 3500 rpm at 4° C. The phage solution was then removed, and the wells were washed three times with PBS at room temperature. Antibody raised against M13 conjugated to horseradish peroxidase (Pharmacia) was diluted 1:3000 in PBS-Tween and added to each well (100 µl/well). Incubation was for 1 hr at room temperature, followed by washing with PBS-(0.5%) Tween 3 times as described. Color was developed by addition of ABTS solution (100 µl/well; Boehringer, Indianapolis, Ind.). Plates were analyzed at 405 nm. A clone was considered "positive" if the $A405$ of the well was $\geq$2-fold over background.
For WWREWVDGSLRGGGGTVLKDAAAGAPVPYPDPLEPRP [DGI-2-20R-3-A122], the “ETAG (OD)” value was 15.1 OD.
For GWSDFVATGSWSGQVSAALNAAAGAPVPYPDPLEPRP [DGI-2-20R-4-F120], the “ETAG (OD)” value was 16.5 OD.
For RKGWGVFCIPGLRFCDWSDPAAAGAPVPYPDPLEPRP [DGI-2-20R-3-B4], the “ETAG (OD)” value was 17.4 OD.
In the case of LFSATGCALMSGFCLGSDGSAAAGAPVPYPDPLEPRP [DGI-2-20R-3-C1], the “ETAG (OD)” value is reported as 14 OD.
With B1 the “ETAG (OD)” value was 14 OD.
For GHGAGDWAAELFVCPVAFLTGFAWRAAAGAPVPYPDPLEPRP [DGI-2-20R-4-H2], the “ETAG (OD)” value was 12.9 OD.
For VSFAHDWGRWWYQWEVGAAAGAPVPYPDPLEPRP [DGI-2-20R-4-G22], the “ETAG (OD)” value was 12.9 OD.
RTLFINGGCCGKGSGGGRPLAAAGAPVPYPDPLEPRP [DGI-2-20F-PP-G1] was tested, and the “ETAG (OD)” value was 21.8 OD.
With B2 the “ETAG (OD)” value was 17.7 OD.
In the case of CGGWGAMWEAWVQGLNGAGCAAAGAPVPYPDPLEPRP [DGI-2-20R-3-D4], the “ETAG (OD)” value is reported as 18.9 OD.
In the case of VWRDWVNGTVGLRNREKPGVAAAGAPVPYPDPLEPRP [DGI-2-20R-3-A5], the “ETAG (OD)” value is reported as 14.9 OD.
In the case of LSLEGGWMWDTKGGDGGSAQAAAGAPVPYPDPLEPRP [DGI-2-20R-4-F93], the “ETAG (OD)” value is reported as 19.5 OD.
For DGRGWGAMWMRWAEGLGADIAAAGAPVPYPDPLEPRP [DGI-2-20R-4-G114], the “ETAG (OD)” value was 16.5 OD.
WWERFVWGRPVDDGVVVMATAAAGAPVPYPDPLEPRP [DGI-2-20R-3-B1] was tested, and the “ETAG (OD)” value was 14.5 OD.
With LWRRWSEGQLLGDGELRGDGAAAGAPVPYPDPLEPRP [DGI-2-20R-3-B52] the “ETAG (OD)” value was 15.8 OD.
In the case of QLDCLVWGLPGLRCDRPLEQAAAGAPVPYPDPLEPRP [DGI-2-20R-3-B10], the “ETAG (OD)” value is reported as 17 OD.
In the case of VLGADAGMIWFMDGCGIRCRAAAGAPVPYPDPLEPRP [DGI-2-20R-4-E6], the “ETAG (OD)” value is reported as 19.1 OD.

What follows are binders tested against T1, DGI-2 polypeptide (assay: phage ELISA).
Experimental: as §1
With WWREWVDGSLRGGGGTVLKDAAAGAPVPYPDPLEPRP [DGI-2-20R-3-A122] the “DGI-2 (OD)” value was 9.6 OD and the DGI-2/LDH was 9.4 ratio.
With GWSDFVATGSWSGQVSAALNAAAGAPVPYPDPLEPRP [DGI-2-20R-4-F120] the “DGI-2 (OD)” value was 13.6 OD and the DGI-2/LDH was 12.2 ratio.
With RKGWGVFCIPGLRFCDWSDPAAAGAPVPYPDPLEPRP [DGI-2-20R-3-B4] the “DGI-2 (OD)” value was 8.4 OD and the DGI-2/LDH was 8.6 ratio.
LFSATGCALMSGFCLGSDGSAAAGAPVPYPDPLEPRP [DGI-2-20R-3-C1] was tested, and the “DGI-2 (OD)” value was 8.2 OD and the DGI-2/LDH was 8.3 ratio.
B1 was tested, and the “DGI-2 (OD)” value was 6.7 OD and the DGI-2/LDH was 6.4 ratio.
In the case of GHGAGDWAAELFVCPVAFLTGFAWRAAAGAPVPYPDPLEPRP [DGI-2-20R-4-H2], the “DGI-2 (OD)” value is reported as 9.9 OD and the DGI-2/LDH is reported as 9.2 ratio.
VSFAHDWGRWWYQWEVGAAAGAPVPYPDPLEPRP [DGI-2-20R-4-G22] was tested, and the “DGI-2 (OD)” value was 7.9 OD and the DGI-2/LDH was 6.5 ratio.
In the case of RTLFINGGCCGKGSGGGRPLAAAGAPVPYPDPLEPRP [DGI-2-20F-PP-G1], the “DGI-2 (OD)” value is reported as 1.4 OD and the DGI-2/LDH is reported as 1.4 ratio.
B2 was tested, and the “DGI-2 (OD)” value was 7.9 OD and the DGI-2/LDH was 6.2 ratio.
With CGGWGAMWEAWVQGLNGAGCAAAGAPVPYPDPLEPRP [DGI-2-20R-3-D4] the “DGI-2 (OD)” value was 8.7 OD and the DGI-2/LDH was 8.1 ratio.
With VWRDWVNGTVGLRNREKPGVAAAGAPVPYPDPLEPRP [DGI-2-20R-3-A5] the “DGI-2 (OD)” value was 10.9 OD and the DGI-2/LDH was 9.8 ratio.
With LSLEGGWMWDTKGGDGGSAQAAAGAPVPYPDPLEPRP [DGI-2-20R-4-F93] the “DGI-2 (OD)” value was 9 OD and the DGI-2/LDH was 8.4 ratio.
With DGRGWGAMWMRWAEGLGADIAAAGAPVPYPDPLEPRP [DGI-2-20R-4-G114] the “DGI-2 (OD)” value was 12.9 OD and the DGI-2/LDH was 11 ratio.
WWERFVWGRPVDDGVVVMATAAAGAPVPYPDPLEPRP [DGI-2-20R-3-B1] was tested, and the “DGI-2 (OD)” value was 6.3 OD and the DGI-2/LDH was 6.2 ratio.
For LWRRWSEGQLLGDGELRGDGAAAGAPVPYPDPLEPRP [DGI-2-20R-3-B52], the “DGI-2 (OD)” value was 8.7 OD and the DGI-2/LDH was 8.4 ratio.
With QLDCLVWGLPGLRCDRPLEQAAAGAPVPYPDPLEPRP [DGI-2-20R-3-B10] the “DGI-2 (OD)” value was 7.8 OD and the DGI-2/LDH was 7.6 ratio.
For VLGADAGMIWFMDGCGIRCRAAAGAPVPYPDPLEPRP [DGI-2-20R-4-E6], the “DGI-2 (OD)” value was 7 OD and the DGI-2/LDH was 7 ratio.

Each binder was assayed against T3, lactate dehydrogenase (LDH) (assay: phage ELISA).
T3 construct: Coated at 500 ng/well as non-specific target; also called LDH polypeptide
Experimental: as §1
WWREWVDGSLRGGGGTVLKDAAAGAPVPYPDPLEPRP [DGI-2-20R-3-A122] was tested, and the “LDH (OD)” value was 1 OD.
For GWSDFVATGSWSGQVSAALNAAAGAPVPYPDPLEPRP [DGI-2-20R-4-F120], the “LDH (OD)” value was 1.1 OD.
RKGWGVFCIPGLRFCDWSDPAAAGAPVPYPDPLEPRP [DGI-2-20R-3-B4] was tested, and the “LDH (OD)” value was 1 OD.
With LFSATGCALMSGFCLGSDGSAAAGAPVPYPDPLEPRP [DGI-2-20R-3-C1] the “LDH (OD)” value was 1 OD.
In the case of B1, the “LDH (OD)” value is reported as 1 OD.
GHGAGDWAAELFVCPVAFLTGFAWRAAAGAPVPYPDPLEPRP [DGI-2-20R-4-H2] was tested, and the “LDH (OD)” value was 1.1 OD.
With VSFAHDWGRWWYQWEVGAAAGAPVPYPDPLEPRP [DGI-2-20R-4-G22] the “LDH (OD)” value was 1.2 OD.
In the case of RTLFINGGCCGKGSGGGRPLAAAGAPVPYPDPLEPRP [DGI-2-20F-PP-G1], the “LDH (OD)” value is reported as 1 OD.
B2 was tested, and the “LDH (OD)” value was 1.3 OD.
With CGGWGAMWEAWVQGLNGAGCAAAGAPVPYPDPLEPRP [DGI-2-20R-3-D4] the “LDH (OD)” value was 1.1 OD.
With VWRDWVNGTVGLRNREKPGVAAAGAPVPYPDPLEPRP [DGI-2-20R-3-A5] the “LDH (OD)” value was 1.1 OD.
For LSLEGGWMWDTKGGDGGSAQAAAGAPVPYPDPLEPRP [DGI-2-20R-4-F93], the “LDH (OD)” value was 1.1 OD.
DGRGWGAMWMRWAEGLGADIAAAGAPVPYPDPLEPRP [DGI-2-20R-4-G114] was tested, and the “LDH (OD)” value was 1.2 OD.
With WWERFVWGRPVDDGVVVMATAAAGAPVPYPDPLEPRP [DGI-2-20R-3-B1] the “LDH (OD)” value was 1 OD.
For LWRRWSEGQLLGDGELRGDGAAAGAPVPYPDPLEPRP [DGI-2-20R-3-B52], the “LDH (OD)” value was 1 OD.
With QLDCLVWGLPGLRCDRPLEQAAAGAPVPYPDPLEPRP [DGI-2-20R-3-B10] the “LDH (OD)” value was 1 OD.
VLGADAGMIWFMDGCGIRCRAAAGAPVPYPDPLEPRP [DGI-2-20R-4-E6] was tested, and the “LDH (OD)” value was 1 OD.
